Experimental data published in paper PMC6921046, “Functional Characterization and Structural Analysis of NADH Oxidase Mutants from Thermus thermophilus HB27: Role of Residues 166, 174, and 194 in the Catalytic Properties and Thermostability” (Microorganisms, 2019).
Numbering of substitutions follows the chain as printed. Names may count otherwise.

Experiments:
Experiment in all cases: purified protein
purified protein [1] = substrate: Cc1cc2nc3c(=O)[nH]c(=O)nc-3n(C[C@H](O)[C@H](O)[C@H](O)COP(=O)(O)OP(=O)(O)OC[C@H]3O[C@@H](n4cnc5c(N)ncnc54)[C@H](O)[C@@H]3O)c2cc1C; assay type: biochemical, Thermus thermophilus; settings: 10 µM NADH, pH 7, 25 °C, exogenous flavin, varied: cofactor
purified protein [2] = substrate: NC(=O)C1=CN([C@@H]2O[C@H](COP(=O)(O)OP(=O)(O)OC[C@H]3O[C@@H](n4cnc5c(N)ncnc54)[C@H](O)[C@@H]3O)[C@@H](O)[C@H]2O)C=CC1; assay type: biochemical, Thermus thermophilus; settings: 50 µM FAD, pH 7, 25 °C
purified protein [3] = substrate: Cc1cc2nc3c(=O)[nH]c(=O)nc-3n(C[C@H](O)[C@H](O)[C@H](O)COP(=O)(O)O)c2cc1C; assay type: biochemical, Thermus thermophilus; settings: 10 µM NADH, pH 7, 25 °C, exogenous flavin, varied: cofactor
purified protein [4] = substrate: Cc1cc2nc3c(=O)[nH]c(=O)nc-3n(C[C@H](O)[C@H](O)[C@H](O)CO)c2cc1C; settings: 10 µM NADH, pH 7, 25 °C, exogenous flavin, varied: cofactor
[5] = authors' cloned wild type, apparent
[6] = authors' cloned wild type K166/H174/Y194, apparent

B1: Tt27-NOX (Thermus thermophilus HB27; H194Y) (protein)
chain: MEATLPVLDAKTAALKRRSIRRYRKDPVPEGLLREILEAALRAPSAWNLQPWRIVVVRDPATKRALREAAFGQAHVEEAPVVLVLYADLEDALAHLDEVIHPGVQGERREAQKQAIQRAFAAMGQEARKAWASGQSYILLGYLLLLLEAYGLGSVPMLGFDPERVKAILGLPSHAAIPALVALGYPAEEGYPSYRLPLERVVLWR
notes: Recombinant, pET22b, E. coli BL21(DE3), heat shock plus PEI-Ag/DS-Ag; homodimer, ~27 kDa monomer
Km (purified protein [1]; K166/H174/H194, apparent): 46 ± 2.3 µM
Km (purified protein [1]; [5]): 34 ± 1.7 µM
Km (purified protein [2]; K166/H174/H194, apparent): 1.3 ± 0.06 µM
kcat (purified protein [2]; K166/H174/H194, apparent): 27.2 ± 1.4 s⁻¹
kcat/Km (purified protein [2]; K166/H174/H194, apparent): 2.1e+07 ± 1.1e+06 M⁻¹ s⁻¹
Km (purified protein [2]; [6]): 1.6 ± 0.1 µM
kcat (purified protein [2]; [6]): 23.3 ± 1.2 s⁻¹
kcat/Km (purified protein [2]; [6]): 1.46e+07 ± 70000 M⁻¹ s⁻¹
Km (purified protein [3]; K166/H174/H194, apparent): 45 ± 2.3 µM
Km (purified protein [3]; [5]): 43 ± 2.2 µM
Km (purified protein [4]; K166/H174/H194, apparent): 68.7 ± 3.4 µM
Km (purified protein [4]; [5]): 69.7 ± 3.5 µM

B2: Tt27-NOX (Thermus thermophilus HB27; H174R/H194Y) (protein)
chain: B1 chain with H174R
notes: as for B1
Km (purified protein [1]; K166/R174/Y194, apparent): 127 ± 6.4 µM
Km (purified protein [2]; K166/R174/Y194, apparent): 1.9 ± 0.1 µM
kcat (purified protein [2]; K166/R174/Y194, apparent): 8.6 ± 0.4 s⁻¹
kcat/Km (purified protein [2]; K166/R174/Y194, apparent): 4.5e+06 ± 220000 M⁻¹ s⁻¹
Km (purified protein [3]; K166/R174/Y194, apparent): 15 ± 0.8 µM
Km (purified protein [4]; K166/R174/Y194, apparent): 60 ± 3 µM

B3: R166/R174/H194 variant (Tt8-NOX variant) (Thermus thermophilus HB8; H174R) (protein)
chain: B1 chain with K166R, H174R, Y194H
notes: pET22b, E. coli BL21(DE3); homodimer, ~27 kDa monomer
Km (purified protein [1]; R166/R174/H194, apparent): 31.9 ± 1.4 µM
Km (purified protein [2]; R166/R174/H194, apparent): 1.8 ± 0.1 µM
kcat (purified protein [2]; R166/R174/H194, apparent): 15.1 ± 0.8 s⁻¹
kcat/Km (purified protein [2]; R166/R174/H194, apparent): 8.4e+06 ± 420000 M⁻¹ s⁻¹
Km (purified protein [3]; R166/R174/H194, apparent): 23.6 ± 1 µM
Km (purified protein [4]; R166/R174/H194, apparent): 50.8 ± 2.6 µM

B4: Tt27-NOX (Thermus thermophilus HB27; H194Y/K166R) (protein)
chain: B1 chain with K166R
notes: as for B1
Km (purified protein [1]; R166/H174/Y194, apparent): 30 ± 1.5 µM
Km (purified protein [3]; R166/H174/Y194, apparent): 27 ± 1.4 µM
